From patent US6730503B1 (Roche Vitamins Inc., priority 1996, dated 2004)
“And” between values parts separate entries of the source, which are not always exact repeats. Equal entries are not always repeated. “Also recorded” adds a separate entry of the source.

Legend:
[1] = Optimal pH, PMS-DCIP assay in buffers of various pH; type: biochemical
Description: The Enzymes A″ and B have a relatively wide pH range toward a lower pH, compared with the Enzymes A and A′.
The enzyme activity was assayed by the PMS-DCIP spectrophotometric assay using various pH buffers. The buffers were 50 mM Tris-malate-NaOH, pH 6.0, 6.5, 7.0, 7.5, 8.0 and 8.5; 50 mM glycine-NaOH, pH 9.0 and 9.5. The extinction coefficients of DCIP at pH 6.0, 6.5, 7.0, 7.5, 8.0, 8.5, 9.0 and 9.5 were taken as 10.8, 13.2, 14.5, 14.9, 15.0, 15.1, 15.1 and 15.1, respectively. […] The Enzymes A″ and B had relatively wide pH range toward lower pH, compared with the Enzymes A and A′.

[2] = Substrate specificity of purified enzymes, PMS-DCIP spectrophotometric assay; type: biochemical; settings: A′ corrected 1.5-fold (purity about 65%)
Description: The enzymatic activity of the AADHs herein can be determined by methods known in the art, such as by photometric analysis using a spectrophotometer. In accordance with the present invention, one unit of enzyme activity was defined as the amount of enzyme which catalyzed the reduction of 1 μmole of DCIP per minute. The extinction coefficient of DCIP at pH 8.0 was taken as 15 mM^−1. In a preferred standard assay for determining the enzyme activity of the AADHs herein, a first cuvette includes a standard reaction mixture (1.0 ml) containing 0.1 mM DCIP, 1 mM PMS, 2 to 125 mM substrate, 50 mM Tris-malate-NaOH buffer (pH 8.0), and 10 μl of the enzyme solution. A second cuvette, i.e., a reference cuvette, contains all the above components except the substrate. The reference cuvette is used to standardize the background absorbance resulting from a substrate-independent (endogenous) reaction. Preferably, a double beam spectrophotometer is used to determine the activity of the enzyme in the presence of a substrate with respect to a standard reaction mixture in the absence of the substrate.
Enzyme activities of each clone (cell free extract, soluble fraction and membrane fraction) were measured by photometric analysis. The cells of each clone were inoculated in 5 ml of MB medium in a test tube and cultivated at 30° C. for 24 hours. The resulting broth was transferred into 200 ml of fresh MB medium in 500 ml flask and the flask was shaken on the rotary flask shaker at 30° C. for 24 hours. The cells were collected by centrifugation at 6,000×g for 10 minutes and washed with 40 ml of cold buffer consisting of 50 mM Tris-HCl, pH 7.5, 5 mM MgCl2 and 0.5 mM phenylmethylsulfonyl fluoride and suspended with the same buffer to prepare cell suspension of 1 g wet cells per 5 ml. The cell suspension was subjected twice to a French press cell disruptor (1,500 kg/cm^2) and the resulting homogenate was centrifuged at 6,000×g for 10 minutes to remove cell debris. Thus obtained cell free extract (CFE) was centrifuged at 100,000×g for 60 minutes. The resulting supernatant and pellet were collected as the cytosol fraction and the membrane fraction, respectively and subjected to PMS-DCIP assay as follows. The enzyme reaction mixture (1.0 ml) contained 100 μM DCIP, 1 mM PMS, 50 mM Tris malate-NaOH buffer, pH 8.0, a substrate and the enzyme (10 μl). Substrate-dependent decreasing rate of absorbance of DCIP at 600 nm was measured at 25° C. by using a Kontron spectrophotometer UVIKON 810. […] In the A-group, there were three types, A, A′ and A″ each of which was distinguished from each other by their physical map of the DNA carried on each plasmid. B- or C-group each consisted of only one type of protein derived from one region of the chromosomal DNA.

[3] = Oxidation product of AADH clones by resting cell reaction followed by TLC analysis; type: cell-based, P. putida
Source text: Enzyme A gene was originally cloned as a cosmid clone of p24D4 which has about 25 kb insert in EcoRI site of pVK100. Then, it was further subcloned to use as an Enzyme A gene cassette. The 2.7 kb EcoRV fragment which includes ORF of Enzyme A gene with about 500 bp of non-coding regions at the both ends was excised from 3.4 kb NruI fragment, which was isolated from p24D4 in M13 mp18, and was ligated to HindIII site of pUC18 with HindIII linker ([…]). The resulting plasmid was designated pSSA202. Enzyme A gene cassette (2.7 kb HindIII fragment) was then inserted at HindIII site of pVK102 to produce pSSA102R. The plasmid pSSA102R was introduced into nalidixic acid resistant P. putida [ATCC 21812] by a conjugal mating method as described in Example 1-(1). The transconjugant of P. putida carrying pSSA102R was selected on MB agar medium containing 50 μg/ml nalidixic acid and 10 μg/ml tetracycline (MNT agar medium) and subjected to a mini-resting cell reaction. […] The reaction mixture was assayed with TLC and 2KGA was identified as the product, while no 2KGA was observed by the same resting cell reaction with the host, nalidixic acid resistant P. putida [ATCC 21812].

[4] = Thermal stability, 5 minutes, residual activity by PMS-DCIP assay; type: physicochemical
Description: Table 4 indicates the results of thermal-stabilities of the enzymes. The enzyme (about 0.05 mg/ml) in 25 mM HEPES buffer, pH 7.5, containing 5% sucrose, 0.2 M NaCl, and 5 mM CaCl2 was incubated at temperature indicated in the table (4-60° C.) for 5 minutes, cooled in ice bath and assayed by PMS-DCIP spectrophotometric method. Remaining activity was expressed as relative activity against that obtained by 4° C. incubation.

[5] = Products of enzyme reactions with purified enzymes, identified by TLC and/or HPLC; type: biochemical
Description: Products formed from a substrate in the reaction with Enzyme A, Enzyme A′, Enzyme A″ or Enzyme B were analyzed by thin layer chromatography (TLC) and/or high performance liquid chromatography (HPLC) with authentic compounds. […] Similarly to the reactivity for L-sorbosone, D-glucosone can be converted to 2KD by all of above mentioned AADHs. A group enzymes can produce 2KD from D-fructose whose possible direct product is D-glucosone. […]
Enzyme reactions with purified Enzyme A or Enzyme B and various substrates were performed as described in Example 11.

B1: Enzyme B: recombinant AADH of G. oxydans DSM No. 4025, amino acid sequence SEQ ID NO 8, plasmid pSS31/pSSB103R (protein)
chain: MNPTTLLRTSAAVLLLTAPAAFAQVTPITDELLANPPAGEWINYGRNQENYRHSPLTQITADNVGQLQLVWARGMEAGAVQVTPMIHDGVMYLANPGDVIQALDAQTGDLIWEHRRQLPAVATLNAQGDRKRGVALYGTSLYFSSWDNHLIALDMETGQVVFDVERGSGEDGLTSNTTGPIVANGVIVAGSTCQYSPYGCFISGHDSATGEELWRNHFIPQPGEEGDETWGNDFEARWMTGVWGQITYDPVTNLVFYGSTGVGPASETQRGTPGGTLYGTNTRFAVRPDTGEIVWRHQTLPRDNWDQECTFEMMVANVDVQPSAEMEGLRAINPNAATGERRVLTGAPCKTGTMWSFDAASGEFLWARDTNYTNMIASIDETGLVTVNEDAVLKELDVEYDVCPTFLGGRDWSSAALNPDTGIYFLPLNNACYDIMAVDQEFSALDVYNTSATAKLAPGFENMGRIDAIDISTGRTLWSAERPAANYSPVLSTAGGVVFNGGTDRYFRALSQETGETLWQARLATVATGQAISYELDGVQYIAIGAGGLTYGTQLNAPLAEAIDSTSVGNAIYVFALPQ
modifications: Gluconobacter oxydans; SIGNAL (1)..(23)
- Relative activity (optimal pH) ([1]; assay pH 6.0, pH 8.0 = 100): 21.0%
- Relative activity (optimal pH) ([1]; assay pH 6.5, pH 8.0 = 100): 51.6%
- Relative activity (optimal pH) ([1]; assay pH 7.0, pH 8.0 = 100): 61.6%
- Relative activity (optimal pH) ([1]; assay pH 7.5, pH 8.0 = 100): 75.3%
- Relative activity (optimal pH) ([1]; assay pH 8.0): 100.0%
- Relative activity (optimal pH) ([1]; assay pH 8.5, pH 8.0 = 100): 62.2%
- Relative activity (optimal pH) ([1]; assay pH 9.0, pH 8.0 = 100): 8.0%
- Relative activity (optimal pH) ([1]; assay pH 9.5, pH 8.0 = 100): 0.0%
- Substrate specificity ([2]; 2 mM L-Sorbosone): 73.6 units/mg of purified protein
- Substrate specificity ([2]; 50 mM D-Glucose): 943.9 units/mg of purified protein
- Substrate specificity ([2]; 50 mM D-Mannitol): 517.4 units/mg of purified protein
- Substrate specificity ([2]; 50 mM Isopropanol): 72.3 units/mg of purified protein
- Substrate specificity ([2]; 50 mM n-Propanol): 40.0 units/mg of purified protein
- Substrate specificity ([2]; 125 mM D-Fructose): 2.1 units/mg of purified protein
- Substrate specificity ([2]; 125 mM D-Sorbitol): 130.9 units/mg of purified protein
- Substrate specificity ([2]; 125 mM L-Sorbose): 8.4 units/mg of purified protein
- Oxidation product of D-glucose [3]: *2Oxidation product of D-glucose by Enzyme B, and Enzyems [A and B] was D-gluconic acid.
- Oxidation product of D-sorbitol [3]: L-sorbose
- Oxidation product of L-sorbosone [3]: *4Oxidation product of L-sorbosone by Enzymes A, A′, A″, B, and [A and B] was 2KGA.
- Relative activity (thermal stability) ([4]; 4° C. for 5 minutes (reference)): 100.0%
- Relative activity (thermal stability) ([4]; 20° C. for 5 minutes, relative to 4° C. incubation): 97.2%
- Relative activity (thermal stability) ([4]; 30° C. for 5 minutes, relative to 4° C. incubation): 95.4%
- Relative activity (thermal stability) ([4]; 40° C. for 5 minutes, relative to 4° C. incubation): 84.6%
- Relative activity (thermal stability) ([4]; 50° C. for 5 minutes, relative to 4° C. incubation): 29.2%
- Relative activity (thermal stability) ([4]; 60° C. for 5 minutes, relative to 4° C. incubation): 0.0%
- Product ([5]; substrate D-Gluconic acid): 5-keto-D-gluconic acid and 5-Keto-D-gluconic acid
- Product ([5]; substrate D-Glucose): D-gluconate; also recorded: D-Gluconic acid
- Product ([5]; substrate D-Mannitol): D-Fructose
- Product ([5]; substrate D-Mannoic acid): 5-keto-D-mannoic acid and 5-Keto-D-mannoic acid
- Product ([5]; substrate D-Sorbitol): L-Sorbose
- Product ([5]; substrate Glycerol): Dihydroxyacetone
- Product ([5]; substrate L-Idose): L-Idonic acid
- Product ([5]; substrate L-Sorbosone): 2KGA
